How the values were obtained:
Format in all cases: biochemical
[1] = Carboxylate reductase activity assay, adipate semialdehyde to hexanedial; details: enhanced by gene product of sfp, 2 mM adipate semialdehyde, room temperature, 20 min, vs empty vector control, FIG. 13
Method: The N-terminal His-tagged carboxylate reductase of SEQ ID NO 7 (see Example 4 and FIG. 7E) was assayed using adipate semialdehyde as substrate. The enzyme activity assay was performed in triplicate in a buffer composed of a final concentration of 50 mM HEPES buffer (pH=7.5), 2 mM adipate semialdehyde, 10 mM MgCl2, 1 mM ATP and 1 mM NADPH. The enzyme activity assay reaction was initiated by adding purified carboxylate reductase and phosphopantetheine transferase or the empty vector control to the assay buffer containing the adipate semialdehyde and then incubated at room temperature for 20 min. The consumption of NADPH was monitored by absorbance at 340 nm.

[2] = ω-transaminase activity assay, reverse direction, 6-aminohexanoate to adipate semialdehyde; details: cell free extract, 10 mM 6-aminohexanoate, 10 mM pyruvate, 25° C., 24 h, vs empty vector control, FIG. 15
Method: (§1) A nucleotide sequence encoding a His-tag was added to the genes from Chromobacterium violaceum, Pseudomonas aeruginosa, Pseudomonas syringae, Rhodobacter sphaeroides, and Vibrio fluvialis encoding the ω-transaminases of SEQ ID NOs: 7, 8, 9, 10 and 12, respectively (see FIGS. 7E and 7F) such that N-terminal HIS tagged ω-transaminases could be produced. Each of the resulting modified genes was cloned into a pET21a expression vector under control of the T7 promoter and each expression vector was transformed into a BL21[DE3] E. coli host. The resulting recombinant E. coli strains were cultivated at 37° C. in a 250 mL shake flask culture containing 50 mL LB media and antibiotic selection pressure, with shaking at 230 rpm. Each culture was induced overnight at 16° C. using 1 mM IPTG.
(§2) The pellet from each induced shake flask culture was harvested via centrifugation. Each pellet was resuspended and lysed via sonication. The cell debris was separated from the supernatant via centrifugation and the cell free extract was used immediately in enzyme activity assays.
Enzyme activity assays in the reverse direction (i.e., 6-aminohexanoate to adipate semialdehyde) were performed in a buffer composed of a final concentration of 50 mM HEPES buffer (pH=7.5), 10 mM 6-aminohexanoate, 10 mM pyruvate and 100 μM pyridoxyl 5′ phosphate. Each enzyme activity assay reaction was initiated by adding cell free extract of the ω-transaminase gene product or the empty vector control to the assay buffer containing the 6-aminohexanoate and incubated at 25° C. for 24 h, with shaking at 250 rpm. The formation of L-alanine from pyruvate was quantified via RP-HPLC.

[3] = ω-transaminase activity assay, forward direction, adipate semialdehyde to 6-aminohexanoate; details: cell free extract, 10 mM adipate semialdehyde, 10 mM L-alanine, 25° C., 4 h, vs empty vector control, FIG. 16
Method: as §1, §2
Enzyme activity in the forward direction (i.e., adipate semialdehyde to 6-aminohexanoate) was confirmed for the transaminases of SEQ ID NO 7, SEQ ID NO 8, SEQ ID NO 9, SEQ ID NO 10 and SEQ ID NO 12. Enzyme activity assays were performed in a buffer composed of a final concentration of 50 mM HEPES buffer (pH=7.5), 10 mM adipate semialdehyde, 10 mM L-alanine and 100 μM pyridoxyl 5′ phosphate. Each enzyme activity assay reaction was initiated by adding a cell free extract of the ω-transaminase gene product or the empty vector control to the assay buffer containing the adipate semialdehyde and incubated at 25° C. for 4 h, with shaking at 250 rpm. The formation of pyruvate was quantified via RP-HPLC.

[4] = Carboxylate reductase activity assay, adipate to adipate semialdehyde; details: enhanced by gene product of sfp, 2 mM adipate, room temperature, 20 min, vs empty vector control, FIG. 10
Method: A nucleotide sequence encoding a HIS-tag was added to the genes from Segniliparus rugosus and Segniliparus rotundus that encode the carboxylate reductases of SEQ ID NOs: 5 and 7, respectively (see FIGS. 7C and 7E), such that N-terminal HIS tagged carboxylate reductases could be produced. Each of the modified genes was cloned into a pET Duet expression vector along with a sfp gene encoding a HIS-tagged phosphopantetheine transferase from Bacillus subtilis, both under the T7 promoter. Each expression vector was transformed into a BL21[DE3] E. coli host and the resulting recombinant E. coli strains were cultivated at 37° C. in a 250 mL shake flask culture containing 50 mL LB media and antibiotic selection pressure, with shaking at 230 rpm. Each culture was induced overnight at 37° C. using an auto-induction media.
The pellet from each induced shake flask culture was harvested via centrifugation. Each pellet was resuspended and lysed via sonication, and the cell debris was separated from the supernatant via centrifugation. […]
Enzyme activity assays (i.e., from adipate to adipate semialdehyde) were performed in triplicate in a buffer composed of a final concentration of 50 mM HEPES buffer (pH=7.5), 2 mM adipate, 10 mM MgCl2, 1 mM ATP and 1 mM NADPH. […] The consumption of NADPH was monitored by absorbance at 340 nm.

[5] = Pimeloyl-[acp] methyl ester methylesterase activity assay, adipyl-CoA methyl ester to adipyl-CoA; details: 10 μM enzyme, 5 mM adipyl-CoA methyl ester, pH 7.0, 30° C., 1 h, FIG. 20
Method: A sequence encoding an C-terminal His-tag was added to the gene from Escherichia coli encoding the pimeloyl-[acp] methyl ester methylesterase of SEQ ID NO: 17 (see FIG. 7G) such that C-terminal HIS tagged pimeloyl-[acp] methyl ester methylesterase could be produced. The resulting modified gene was cloned into a pET28b+ expression vector under control of the T7 promoter and the expression vector was transformed into a BL21[DE3] E. coli host. The resulting recombinant E. coli strain was cultivated at 37° C. in a 500 mL shake flask culture containing 100 mL LB media and antibiotic selection pressure, with shaking at 230 rpm. Each culture was induced overnight at 18° C. using 0.3 mM IPTG.
The pellet from each induced shake flask culture was harvested via centrifugation. Each pellet was resuspended and lysed via sonication. The cell debris was separated from the supernatant via centrifugation. The pimeloyl-[acp] methyl ester methylesterase was purified from the supernatant using Ni-affinity chromatography, buffer exchanged and concentrated into 20 mM HEPES buffer (pH=7.5) via ultrafiltration and stored at 4° C.
Enzyme activity assays converting adipyl-CoA methyl ester to adipyl-CoA were performed in triplicate in a buffer composed of a final concentration of 25 mM Tris.HCl buffer (pH=7.0) and 5 [mM] adipyl-CoA methyl ester. […] The formation of adipyl-CoA was quantified via LC-MS.

| Molecule | carboxylate reductase activity for converting adipate semialdehyde to hexanedial (consumption of NADPH, absorbance at 340 nm) [1] | ω-transaminase activity for converting 6-aminohexanoate to adipate semialdehyde (formation of L-alanine from pyruvate, RP-HPLC) [2] | ω-transaminase activity for converting adipate semialdehyde to 6-aminohexanoate (formation of pyruvate, RP-HPLC) [3] | carboxylate reductase activity for converting adipate to adipate semialdehyde (consumption of NADPH, absorbance at 340 nm) [4] | conversion of adipyl-CoA methyl ester to adipyl-CoA by pimeloyl-[acp] methyl ester methylesterase (LC-MS) [5] |
| --- | --- | --- | --- | --- | --- |
| SEQ ID NO 7: Segniliparus rotundus carboxylate reductase (Genbank Accession No. ADG98140.1); in Example 2 the same label is printed for a ω-transaminase (protein, listed as Segniliparus rotundus) MTQSHTQGPQASAAHSRLARRAAELLATDPQAAATLPDPEVVRQATRPGLRLAERVDAILSGYADRPALGQRSFQTVKDPITGRSSVELLPTFDTITYRELRERATAIASDLAHHPQAPAKPGDFLASIGFISVDYVAIDIAGVFAGLTAVPLQTGATLATLTAITAETAPTLFAASIEHLPTAVDAVLATPSVRRLLVFDYRAGSDEDREAVEAAKRKIADAGSSVLVDVLDEVIARGKSAPKAPLPPATDAGDDSLSLLIYTSGSTGTPKGAMYPERNVAHFWGGVWAAAFDEDAAPPVPAINITFLPLSHVASRLSLMPTLARGGLMHFVAKSDLSTLFEDLKLARPTNLFLVPRVVEMLYQHYQSELDRRGVQDGTREAEAVKDDLRTGLLGGRILTAGFGSAPLSAELAGFIESLLQIHLVDGYGSTEAGPVWRDGYLVKPPVTDYKLIDVPELGYFSTDSPHPRGELAIKTQTILPGYYKRPETTAEVFDEDGFYLTGDVVAQIGPEQFAYVDRRKNVLKLSQGEFVTLAKLEAAYSSSPLVRQLFVYGSSERSYLLAVIVPTPDALKKFGVGEAAKAALGESLQKIARDEGLQSYEVPRDFIIETDPFTVENGLLSDARKSLRPKLKEHYGERLEAMYKELADGQANELRDIRRGVQQRPTLETVRRAAAAMLGASAAEIKPDAHFTDLGGDSLSALTFSNFLHDLFEVDVPVGVIVSAANTLGSVAEHIDAQLAGGRARPTFATVHGKGSTTIKASDLTLDKFIDEQTLEAAKHLPKPADPPRTVLLTGANGWLGRFLALEWLERLAPAGGKLITIVRGKDAAQAKARLDAAYESGDPKLAGHYQDLAATTLEVLAGDFSEPRLGLDEATWNRLADEVDFISHPGALVNHVLPYNQLFGPNVAGVAEIIKLAITTRIKPVTYLSTVAVAAGVEPSALDEDGDIRTVSAERSVDEGYANGYGNSKWGGEVLLREAHDRTGLPVRVFRSDMILAHQKYTGQVNATDQFTRLVQSLLATGLAPKSFYELDAQGNRQRAHYDGIPVDFTAESITTLGGDGLEGYRSYNVFNPHRDGVGLDEFVDWLIEAGHPITRIDDYDQWLSRFETSLRGLPESKRQASVLPLLHAFARPGPAVDGSPFRNTVFRTDVQKAKIGAEHDIPHLGKALVLKYADDIKQLGLL | accepted adipate semialdehyde as substrate | accepted 6-aminohexanote as substrate | accepted adipate semialdehyde as substrate | accepted adipate as substrate | – |
| SEQ ID NO. 17: Escherichia coli pimeloyl-[acp] methyl ester esterase (GenBank Accession No. AAC76437.1), C-terminal His-tagged (protein, listed as Escherichia coli, C-terminal His tag) MNNIWWQTKGQGNVHLVLLHGWGLNAEVWRCIDEELSSHFTLHLVDLPGFGRSRGFGALSLADMAEAVLQQAPDKAIWLGWSLGGLVASQIALTHPERVQALVTVASSPCFSARDEWPGIKPDVLAGFQQQLSDDFQRTVERFLALQTMGTETARQDARALKKTVLALPMPEVDVLNGGLEILKTVDLRQPLQNVSMPFLRLYGYLDGLVPRKVVPMLDKLWPHSESYIFAKAAHAPFISHPAEFCHLLVALKQRV | – | – | – | – | accepted adipyl-CoA methyl ester as substrate |
